Biological target: recombinant full-length HSP70 in fusion with N-terminal maltose binding protein (MBP) (UniProt P0DMV8 1-641)
Assay: SPR

Chain of recombinant full-length HSP70 in fusion with N-terminal maltose binding protein (MBP) (P0DMV8 whole entry, the tested form may be a part): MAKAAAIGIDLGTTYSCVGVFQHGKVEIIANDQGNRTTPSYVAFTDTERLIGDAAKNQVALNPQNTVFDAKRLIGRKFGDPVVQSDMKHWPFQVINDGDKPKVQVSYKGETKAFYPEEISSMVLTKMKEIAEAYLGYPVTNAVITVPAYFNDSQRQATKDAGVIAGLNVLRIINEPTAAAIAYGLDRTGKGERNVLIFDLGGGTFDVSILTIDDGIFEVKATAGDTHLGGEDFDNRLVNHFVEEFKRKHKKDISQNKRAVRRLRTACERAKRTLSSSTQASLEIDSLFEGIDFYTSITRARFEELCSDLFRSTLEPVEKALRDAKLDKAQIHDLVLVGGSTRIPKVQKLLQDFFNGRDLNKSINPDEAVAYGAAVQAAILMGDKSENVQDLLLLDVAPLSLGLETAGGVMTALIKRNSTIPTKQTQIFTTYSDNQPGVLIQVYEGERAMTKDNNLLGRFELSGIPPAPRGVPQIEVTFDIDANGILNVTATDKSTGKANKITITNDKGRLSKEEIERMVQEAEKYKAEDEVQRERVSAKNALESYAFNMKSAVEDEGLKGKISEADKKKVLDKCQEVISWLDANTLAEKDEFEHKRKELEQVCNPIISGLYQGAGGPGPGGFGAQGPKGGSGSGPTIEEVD

B1: NS5A domain I (domain or fragment)
chain: SGSWLRDIWDWICEVLSDFKTWLKAKLMPQLPGIPFVSCQRGYRGVWRGDGIMHTRCHCGAEITGHVKNGTMRIVGPRTCKNMWSGTFFINAYTTGPCTPLPAPNYKFALWRVSAEEYVEIRRVGDFHYVSGMTTDNLKCPCQIPSPEFFTELDGVRLHRFAPPCKPLLREEVSFRVGLHEYPVGSQLPCEPEPDVAVLTSMLTDPSHITAEA
Kd: 316 nM

Reference: article PMC4284078 (Virology, 2014)
